# Experimental data published in patent US8114627.
# Tests used:
# [1] = target: sulfo-hirudin ([Leu1, Thr2]-hirudin with sulfotyrosine at position 63, expressed in E. coli) (UniProt P01050)
# [2] = target: [Leu1, Thr2]-63-desulfo-hirudin (Lepirudin (Refludan)) (UniProt P01050)
substance,measurement,setting,value
human α-thrombin (Diapharma),cleavage of the fluorogenic substrate by thrombin (fluorescence intensity over time),[1],"Cleavage of the fluorogenic substrate by thrombin, whose activity is inhibited to different degrees by sulfo-hirudin and desulfo-hirudin"
same,cleavage of the fluorogenic substrate by thrombin (fluorescence intensity over time),[2],"Cleavage of the fluorogenic substrate by thrombin, whose activity is inhibited to different degrees by sulfo-hirudin and desulfo-hirudin"
